# Laboratory results: US20240002501A1
# Where two headings read alike, the source gives them in different places.
# B1: chCE7 (antibody, from another filing, V domains shown)
# VH: QVQLQQPGAELVKPGASVKLSCKASGYTFTGYWMHWVKQRPGHGLEWIGEINPSNGRTNYNERFKSKATLTVDKSSTTAFMQLSGLTSEDSAVYFCARDYYGTSYNFDYWGQGTTLTVSS
# VL: DIQMTQSSSSFSVSLGDRVTITCKANEDINNRLAWYQQTPGNSPRLLISGATNLVTGVPSRFSGSGSGKDYTLTITSLQAEDFATYYCQQYWSTPFTFGSGTELEIK
# What was measured:
# L1-CAM-Fc [1] = molecular target: L1-CAM-Fc (UniProt P32004); experiment: SPR (Biacore T100), L1-CAM-Fc immobilised on CM5 chip
# Chain of L1-CAM-Fc (P32004 20-1120 limits assumed): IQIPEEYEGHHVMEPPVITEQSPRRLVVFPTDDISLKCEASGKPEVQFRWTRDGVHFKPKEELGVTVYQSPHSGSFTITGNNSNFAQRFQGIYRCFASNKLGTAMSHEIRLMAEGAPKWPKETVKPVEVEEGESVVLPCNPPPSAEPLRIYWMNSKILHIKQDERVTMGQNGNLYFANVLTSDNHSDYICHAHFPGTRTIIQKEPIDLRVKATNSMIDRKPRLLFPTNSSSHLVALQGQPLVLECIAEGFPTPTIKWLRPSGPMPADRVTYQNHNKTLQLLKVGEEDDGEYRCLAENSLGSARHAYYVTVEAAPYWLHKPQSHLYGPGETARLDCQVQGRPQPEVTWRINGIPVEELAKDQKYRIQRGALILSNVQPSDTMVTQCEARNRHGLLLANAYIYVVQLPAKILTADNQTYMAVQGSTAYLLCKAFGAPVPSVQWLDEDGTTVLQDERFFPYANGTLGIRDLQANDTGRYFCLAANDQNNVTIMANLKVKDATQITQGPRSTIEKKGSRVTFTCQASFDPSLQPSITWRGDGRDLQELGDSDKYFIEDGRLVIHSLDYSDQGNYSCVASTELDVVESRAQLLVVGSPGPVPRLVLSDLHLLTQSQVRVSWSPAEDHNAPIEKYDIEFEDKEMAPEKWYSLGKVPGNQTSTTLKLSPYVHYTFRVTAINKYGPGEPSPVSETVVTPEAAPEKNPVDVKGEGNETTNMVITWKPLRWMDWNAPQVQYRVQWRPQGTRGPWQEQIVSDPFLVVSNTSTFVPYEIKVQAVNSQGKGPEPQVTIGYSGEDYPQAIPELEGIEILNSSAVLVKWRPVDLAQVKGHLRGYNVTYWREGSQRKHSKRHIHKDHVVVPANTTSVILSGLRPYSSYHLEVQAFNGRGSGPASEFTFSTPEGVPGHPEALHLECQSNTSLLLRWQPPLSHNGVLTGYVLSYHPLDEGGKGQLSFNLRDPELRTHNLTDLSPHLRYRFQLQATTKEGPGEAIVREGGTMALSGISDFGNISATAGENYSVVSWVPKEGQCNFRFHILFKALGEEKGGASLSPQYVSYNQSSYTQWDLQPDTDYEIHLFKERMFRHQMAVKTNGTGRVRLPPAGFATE
# L1-CAM-Fc [2] = molecular target: L1-CAM-Fc (UniProt P32004); experiment: as above; remark: listed apart in the source
# L1-CAM-His = experiment: SPR (Biacore T100), L1-CAM-His immobilised on CM5 chip
# Chain of L1-CAM-His (P32004 20-1120): as the sequence (P32004 20-1120 limits assumed) above
binder,measurement,setting,value
B1,Kd,L1-CAM-Fc [1],0.618 nM
same,Kd,L1-CAM-Fc [2],1.42 nM
same,Kd,L1-CAM-His,1.3 nM
